Data reported in publication PMC3314626, “Crystal Structures of the Tetratricopeptide Repeat Domains of Kinesin Light Chains: Insight into Cargo Recognition Mechanisms” (PLoS ONE, 2012).

What was measured:
Assay in all cases: ITC; peptide (1-3 mM) in the syringe injected into 60-130 uM KLC1-TPR or KLC2-TPR (or mutant) in the cell; 25 C; 20 mM Bis-Tris pH 6.5, 500 mM NaCl, 0.5 mM TCEP; one-site binding model
[1] = target: KLC1 TPR domain (kinesin light chain 1 tetratricopeptide repeat domain) (human) (UniProt Q07866)
[2] = target: KLC1-TPR N301A mutant (human) (UniProt Q07866)
[3] = target: KLC1-TPR N343S mutant (human) (UniProt Q07866)

Kd [1] | dH [1] | stoichiometry N [1] | Kd [2] | dH [2] | stoichiometry N [2] | Kd [3] | dH [3] | stoichiometry N [3] | Binder
9.4 µM | -1.52 kcal/mol | 1.02 | – | – | – | – | – | – | Ac-EYTCPTEDIYLE-OH [JIP1 peptide (C-terminal residues of JNK-interacting protein 1)]
50.3 µM | -2.5 kcal/mol | 1.85 | 179 µM | -1.2 kcal/mol | 1.02 | 44.3 µM | -1.7 kcal/mol | 2.13 | Ac-EMDWDDSALT-OH [ALC1 peptide (alcadein-1)]
